The data set is described as follows: protein stability index of a GFP-peptide fusion (yeast GPS) (PSI 1-4); higher = more stable; sorted into four equal gates, so the index is relative within each strain. Put shortly:
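Yeast carrying a pooled library were grown to mid-log phase in leucine-free medium. Each library plasmid expresses Cherry and has a tiled 17-residue yeast protein peptide fused downstream of GFP. Cells were sorted into four equal gates by GFP/Cherry ratio, and plasmids from each gate were PCR-amplified, Illumina-sequenced and assigned to strains by barcode. Summing, across gates, the read frequency times the gate number gave each peptide's protein stability index.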

± gives the uncertainty stated by the source.

Take IGDYILKSPVLSKLCVP [QCR7]: the protein stability index reads like this: (doa10∆) 1.55 ± 0.061; (pdr5∆) 1.36 ± 0.078; (san1∆) 1.56 ± 0.11; (ubr1∆) 1.69 ± 0.058.

Consider KAKFTSLAVRSLQDRSS [YCS4], for which the protein stability index stood at 2.15 ± 0.042 (doa10∆), 2.3 ± 0.05 (pdr5∆), 2.13 ± 0.054 (san1∆) and 2.24 ± 0.036 (ubr1∆).

In the case of NSSSSTPNTNSNSTPNA [SWI1], the protein stability index runs as follows: (doa10∆) 2.96 ± 0.087; (pdr5∆) 2.98 ± 0.09; (san1∆) 3.12 ± 0.069; (ubr1∆) 3.21 ± 0.059.

Turning to VNDNDERAARVVKGRVE [RPO31], the protein stability index runs as follows: (doa10∆) 3.17 ± 0.16; (pdr5∆) 3.36 ± 0.15; (san1∆) 3.15 ± 0.25; (ubr1∆) 3.4 ± 0.091.

For the sequence IYAGFGRDTTDYLKNII [RPN2], the protein stability index runs as follows: (pdr5∆) 2.75 ± 0.21; (san1∆) 3.22 ± 0.16.

With PDGTLIASAGKDGEIML [ASC1], the protein stability index by setting is: (doa10∆) 3.06 ± 0.073; (pdr5∆) 3.26 ± 0.091; (san1∆) 3.29 ± 0.045; (ubr1∆) 2.8 ± 0.045.

With FPWLNAIKYRPTSVKLL [POP3], the protein stability index (doa10∆) was determined as 2.1 ± 0.038, the protein stability index (pdr5∆) stood at 2.19 ± 0.046, the protein stability index (san1∆) is 2.26 ± 0.062 and the protein stability index (ubr1∆) amounted to 1.96 ± 0.035.

For the sequence FEHGRTPAEMSRPATTT [FAS2], the protein stability index is 2.72 ± 0.064 (doa10∆), 3.13 ± 0.081 (pdr5∆), 2.41 ± 0.09 (san1∆) and 2.79 ± 0.1 (ubr1∆).

DFIQNVGRLWDQTFPIN [ECM29]: the protein stability index is, setting by setting: (doa10∆) 3.13 ± 0.062; (pdr5∆) 3.35 ± 0.057; (san1∆) 3.31 ± 0.043; (ubr1∆) 3.31 ± 0.045.

Consider MDRTQTFIKDCLFTKCL [POP4], for which the protein stability index turned out to be 1.75 ± 0.05 (doa10∆), 1.75 ± 0.056 (pdr5∆), 1.7 ± 0.1 (san1∆) and 1.94 ± 0.044 (ubr1∆).

As for SKKAEKTGTKPAAVFAE [RPL4B], the protein stability index reads like this: (doa10∆) 2.52 ± 0.068; (pdr5∆) 2.8 ± 0.084; (san1∆) 2.44 ± 0.072; (ubr1∆) 2.75 ± 0.061.

For the sequence KMVAKGLNDLVEQYKFR [BRR2], the protein stability index by setting is: (doa10∆) 3.35 ± 0.12; (pdr5∆) 3.17 ± 0.12; (san1∆) 3.03 ± 0.11; (ubr1∆) 3.14 ± 0.096.

Consider TLRPRQYATVSKTHKTV [RPL34A], for which the protein stability index was determined as 2 ± 0.16 (doa10∆) and 2.12 ± 0.093 (pdr5∆).

On to DHTVDEIDHVEYYVMMD [SRB8], for which the protein stability index was found to be 3.01 ± 0.083 (doa10∆), 2.63 ± 0.062 (pdr5∆), 2.96 ± 0.081 (san1∆) and 3.02 ± 0.047 (ubr1∆).

As for LTYKSELSKSRALQENG [YMR153W/NUP53], the protein stability index came out at 1.89 ± 0.063 (doa10∆), 1.95 ± 0.041 (pdr5∆), 2.01 ± 0.085 (san1∆) and 1.87 ± 0.034 (ubr1∆).

The sequence AFNFSFNTSRNVEPTEN [YAR002W/NUP60] yielded a protein stability index (doa10∆) of 3.3 ± 0.052, a protein stability index (pdr5∆) of 3.3 ± 0.079, a protein stability index (san1∆) of 3.41 ± 0.064 and a protein stability index (ubr1∆) of 3.04 ± 0.051.

The sequence ISTRERDYLVDTLKLRE [RRP6] came in with a protein stability index (doa10∆) of 3.07 ± 0.076, a protein stability index (pdr5∆) of 2.72 ± 0.061, a protein stability index (san1∆) of 2.97 ± 0.065 and a protein stability index (ubr1∆) of 3.17 ± 0.06.

On to QIELSCNERVPLSVATE [SRP72], for which the protein stability index is 2.11 ± 0.04 (doa10∆), 2.21 ± 0.053 (pdr5∆), 2.1 ± 0.087 (san1∆) and 2.12 ± 0.04 (ubr1∆).

For the sequence GKMIELISGKAGVLNGT [RET1], the protein stability index reads like this: (doa10∆) 2.62 ± 0.079; (pdr5∆) 2.98 ± 0.087; (san1∆) 2.52 ± 0.24; (ubr1∆) 2.6 ± 0.11.

Turning to ELGAINLHALSMSLQSK [SWI1], the protein stability index by setting is: (doa10∆) 2.39 ± 0.058; (pdr5∆) 2.33 ± 0.085; (san1∆) 1.99 ± 0.27; (ubr1∆) 2.46 ± 0.076.

The sequence GSFNEMKRNCGQIITLF [RMP1] gave a protein stability index (doa10∆) of 2.74 ± 0.064, a protein stability index (pdr5∆) of 2.91 ± 0.06, a protein stability index (san1∆) of 2.55 ± 0.062 and a protein stability index (ubr1∆) of 2.87 ± 0.052.

Turning to VLAQYHEAKERIRQKEV [SNF6], the protein stability index (ubr1∆) was found to be 3.4 ± 0.18.

With FHVGFIAKIKKVCECVC [RPO21], the protein stability index runs as follows: (doa10∆) 1.15 ± 0.046; (pdr5∆) 1.27 ± 0.064; (san1∆) 1.43 ± 0.11; (ubr1∆) 1.26 ± 0.059.

For the sequence LIHPENFTCNRKILNFK [SWI1], the protein stability index came out at 2.17 ± 0.069 (doa10∆), 2.49 ± 0.064 (pdr5∆), 2.37 ± 0.064 (san1∆) and 2.88 ± 0.075 (ubr1∆).

RARKDRMRVSVLEKYEV [SSN3] yielded a protein stability index (doa10∆) of 2.02 ± 0.11, a protein stability index (pdr5∆) of 2.65 ± 0.089, a protein stability index (san1∆) of 2.19 ± 0.13 and a protein stability index (ubr1∆) of 1.97 ± 0.039.

On to PKGATYGKPTNQGVNEL [RPL15A], for which the protein stability index reads like this: (doa10∆) 3.02 ± 0.1; (pdr5∆) 3.22 ± 0.085; (san1∆) 3.2 ± 0.054; (ubr1∆) 3.29 ± 0.044.

FAFWNLLVKFIKFFWNN [YLR018C/POM34] gave a protein stability index (doa10∆) of 2.13 ± 0.23, a protein stability index (pdr5∆) of 2 ± 0.076, a protein stability index (san1∆) of 1.7 ± 0.13 and a protein stability index (ubr1∆) of 1.36 ± 0.24.

The values above are taken from the supplement of paper PMC9732359.
